Assay results published in the supplement of paper PMC10567573.

B1: CCDC89 (parent)
chain: LNAELEEKMMQEAEKLKAQGEYSR
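Note: lentivirally expressed fusions sorted by FACS into six bins by GFP to DsRed ratio, PSI derived from sequencing read proportions per bin multiplied by bin number.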

Variants of: B1
Experiment: protein stability index of a GFP-peptide fusion (GPS, HEK-293T) (PSI 1-6); higher = more stable
Conditions: c terminus: a fixed tail appended
LNAELEEVMMQEAEKLKAQGEYSR [K8V] showed a protein stability index of 4.86. LNAELEESMMQEAEKLKAQGEYSR [K8S] gave a protein stability index of 3.82. With LNAELEEPMMQEAEKLKAQGEYSR [K8P] the protein stability index was 5.12. In the case of LNAELEENMMQEAEKLKAQGEYSR [K8N], the protein stability index is reported as 4.49. With LNAELEECMMQEAEKLKAQGEYSR [K8C] the protein stability index was 5.15. LNAELEEIMMQEAEKLKAQGEYSR [K8I] gave a protein stability index of 4.25. Work on LNAELEEQMMQEAEKLKAQGEYSR [K8Q] yielded a protein stability index of 5.02. Work on LNAELEEHMMQEAEKLKAQGEYSR [K8H] yielded a protein stability index of 5.36. With LNAELEEDMMQEAEKLKAQGEYSR [K8D] the protein stability index was 4.78. Variant LNAELEEAMMQEAEKLKAQGEYSR [K8A] has a protein stability index of 4.9. In the case of LNAELEEWMMQEAEKLKAQGEYSR [K8W], the protein stability index is reported as 4.5. For LNAELEERMMQEAEKLKAQGEYSR [K8R], the protein stability index was 4.98. Work on LNAELEELMMQEAEKLKAQGEYSR [K8L] yielded a protein stability index of 5.19. LNAELEEYMMQEAEKLKAQGEYSR [K8Y] showed a protein stability index of 4.46. Variant LNAELEEMMMQEAEKLKAQGEYSR [K8M] has a protein stability index of 4.92. LNKELEEKMMQEAEKLKAQGEYSR [A3K] showed a protein stability index of 5.28. With LNPELEEKMMQEAEKLKAQGEYSR [A3P] the protein stability index was 4.76. Variant LNRELEEKMMQEAEKLKAQGEYSR [A3R] has a protein stability index of 4.94. In the case of LNDELEEKMMQEAEKLKAQGEYSR [A3D], the protein stability index is reported as 5.08. With LNHELEEKMMQEAEKLKAQGEYSR [A3H] the protein stability index was 4.71. LNFELEEKMMQEAEKLKAQGEYSR [A3F] showed a protein stability index of 4.57. Work on LNNELEEKMMQEAEKLKAQGEYSR [A3N] yielded a protein stability index of 3.89. For LNQELEEKMMQEAEKLKAQGEYSR [A3Q], the protein stability index was 4.97. LNEELEEKMMQEAEKLKAQGEYSR [A3E] showed a protein stability index of 4.45. Work on LNIELEEKMMQEAEKLKAQGEYSR [A3I] yielded a protein stability index of 4.9. LNVELEEKMMQEAEKLKAQGEYSR [A3V] showed a protein stability index of 5.13. Variant LNTELEEKMMQEAEKLKAQGEYSR [A3T] has a protein stability index of 5.63. With LNYELEEKMMQEAEKLKAQGEYSR [A3Y] the protein stability index was 4.2. LNWELEEKMMQEAEKLKAQGEYSR [A3W] gave a protein stability index of 4.58. With LNLELEEKMMQEAEKLKAQGEYSR [A3L] the protein stability index was 5.02. LNSELEEKMMQEAEKLKAQGEYSR [A3S] showed a protein stability index of 4.96. For LNGELEEKMMQEAEKLKAQGEYSR [A3G], the protein stability index was 3.57. LNCELEEKMMQEAEKLKAQGEYSR [A3C] gave a protein stability index of 4.69. With LNAELEEKMMQEFEKLKAQGEYSR [A13F] the protein stability index was 4.49. LNAELEEKMMQETEKLKAQGEYSR [A13T] showed a protein stability index of 5.26. Variant LNAELEEKMMQESEKLKAQGEYSR [A13S] has a protein stability index of 4.68. LNAELEEKMMQEIEKLKAQGEYSR [A13I] showed a protein stability index of 4.38. In the case of LNAELEEKMMQEYEKLKAQGEYSR [A13Y], the protein stability index is reported as 5.28. In the case of LNAELEEKMMQEVEKLKAQGEYSR [A13V], the protein stability index is reported as 4.64. Work on LNAELEEKMMQEEEKLKAQGEYSR [A13E] yielded a protein stability index of 5.71. Variant LNAELEEKMMQEREKLKAQGEYSR [A13R] has a protein stability index of 4.99. In the case of LNAELEEKMMQEDEKLKAQGEYSR [A13D], the protein stability index is reported as 5.8. LNAELEEKMMQEHEKLKAQGEYSR [A13H] showed a protein stability index of 4.85. Variant LNAELEEKMMQEWEKLKAQGEYSR [A13W] has a protein stability index of 4.13. In the case of LNAELEEKMMQEMEKLKAQGEYSR [A13M], the protein stability index is reported as 5. LNAELEEKMMQECEKLKAQGEYSR [A13C] gave a protein stability index of 4.94. In the case of LNAELEEKMMQEQEKLKAQGEYSR [A13Q], the protein stability index is reported as 4.5. In the case of LNAELEEKMMQEKEKLKAQGEYSR [A13K], the protein stability index is reported as 5.08. For LNAELEEKMMQEGEKLKAQGEYSR [A13G], the protein stability index was 4.84. LNAELEEKMMQEAHKLKAQGEYSR [E14H] gave a protein stability index of 5.41. With LNAELEEKMMQEADKLKAQGEYSR [E14D] the protein stability index was 5.19. LNAELEEKMMQEAIKLKAQGEYSR [E14I] showed a protein stability index of 4.27. For LNAELEEKMMQEAAKLKAQGEYSR [E14A], the protein stability index was 4. LNAELEEKMMQEAFKLKAQGEYSR [E14F] gave a protein stability index of 4.05. For LNAELEEKMMQEACKLKAQGEYSR [E14C], the protein stability index was 4.33. For LNAELEEKMMQEAGKLKAQGEYSR [E14G], the protein stability index was 3.59. LMAELEEKMMQEAEKLKAQGEYSR [N2M] showed a protein stability index of 4.99. In the case of LSAELEEKMMQEAEKLKAQGEYSR [N2S], the protein stability index is reported as 5.11. LWAELEEKMMQEAEKLKAQGEYSR [N2W] showed a protein stability index of 2.71. LTAELEEKMMQEAEKLKAQGEYSR [N2T] gave a protein stability index of 5.32. In the case of LRAELEEKMMQEAEKLKAQGEYSR [N2R], the protein stability index is reported as 3.94. With LQAELEEKMMQEAEKLKAQGEYSR [N2Q] the protein stability index was 5.63. LIAELEEKMMQEAEKLKAQGEYSR [N2I] showed a protein stability index of 4.79. LHAELEEKMMQEAEKLKAQGEYSR [N2H] gave a protein stability index of 5.42. For LPAELEEKMMQEAEKLKAQGEYSR [N2P], the protein stability index was 4.82. In the case of LGAELEEKMMQEAEKLKAQGEYSR [N2G], the protein stability index is reported as 5.14. With LNAELEFKMMQEAEKLKAQGEYSR [E7F] the protein stability index was 4.97. In the case of LNAELESKMMQEAEKLKAQGEYSR [E7S], the protein stability index is reported as 4.01. With LNAELECKMMQEAEKLKAQGEYSR [E7C] the protein stability index was 5. Variant LNAELEIKMMQEAEKLKAQGEYSR [E7I] has a protein stability index of 4.64. LNAELEQKMMQEAEKLKAQGEYSR [E7Q] gave a protein stability index of 4.18. LNAELEAKMMQEAEKLKAQGEYSR [E7A] gave a protein stability index of 4.87. Variant LNAELEGKMMQEAEKLKAQGEYSR [E7G] has a protein stability index of 4.35. In the case of LNAELETKMMQEAEKLKAQGEYSR [E7T], the protein stability index is reported as 4.74. Variant LNAELEHKMMQEAEKLKAQGEYSR [E7H] has a protein stability index of 4.5. Variant LNAELEDKMMQEAEKLKAQGEYSR [E7D] has a protein stability index of 4.81. With LNAELEMKMMQEAEKLKAQGEYSR [E7M] the protein stability index was 4.54. For LNAELEYKMMQEAEKLKAQGEYSR [E7Y], the protein stability index was 4.61. Variant LNAELERKMMQEAEKLKAQGEYSR [E7R] has a protein stability index of 3.8. LNAELEVKMMQEAEKLKAQGEYSR [E7V] showed a protein stability index of 5. With LNAHLEEKMMQEAEKLKAQGEYSR [E4H] the protein stability index was 4.4. For LNAILEEKMMQEAEKLKAQGEYSR [E4I], the protein stability index was 4.6. LNARLEEKMMQEAEKLKAQGEYSR [E4R] showed a protein stability index of 4.57. Variant LNAPLEEKMMQEAEKLKAQGEYSR [E4P] has a protein stability index of 3.94. For LNASLEEKMMQEAEKLKAQGEYSR [E4S], the protein stability index was 5.16. Work on LNAYLEEKMMQEAEKLKAQGEYSR [E4Y] yielded a protein stability index of 3.74. Variant LNADLEEKMMQEAEKLKAQGEYSR [E4D] has a protein stability index of 4.94. LNACLEEKMMQEAEKLKAQGEYSR [E4C] showed a protein stability index of 3.98. With LNAWLEEKMMQEAEKLKAQGEYSR [E4W] the protein stability index was 3.12. In the case of LNAVLEEKMMQEAEKLKAQGEYSR [E4V], the protein stability index is reported as 3.95. LNATLEEKMMQEAEKLKAQGEYSR [E4T] gave a protein stability index of 4.3. LNAKLEEKMMQEAEKLKAQGEYSR [E4K] showed a protein stability index of 3.96. LNAQLEEKMMQEAEKLKAQGEYSR [E4Q] showed a protein stability index of 4.76. LNAMLEEKMMQEAEKLKAQGEYSR [E4M] showed a protein stability index of 3.91.
